According to US20110262964A1 (published 2011):
Values joined by “and” are separate entries in the source; they are usually repeats but may differ in a detail not shown here. Identical values can stand only once.

How the values were obtained:
[1] = target: T1, maltose binding protein MalE from Escherichia coli (Escherichia coli, UniProt P0AEX9 27-396 = MBP); experiment: ΔG(wt)-ΔG(mut) from Kd by competition Biacore (reference itself)
[2] = target: T1, maltose binding protein MalE from …; experiment: competition Biacore in solution, buffer L2; buffer L2
[3] = target: T1, maltose binding protein MalE from …; experiment: competition Biacore in solution, buffer M2; buffer M2
[4] = target: bt-MalE, hybrid between a peptide that can be biotinylated in vivo by E. coli and MalE (Escherichia coli)
bovine serum albumin = target: T2, bovine serum albumin (bovine, UniProt P02769 25-607); experiment: fluorescence titration of 0.3 µM DarpOff7(N45ANBD) by BSA, 25 °C, buffer M1
T2 construct: also called BSA
T2 sequence (P02769 25-607 limits assumed): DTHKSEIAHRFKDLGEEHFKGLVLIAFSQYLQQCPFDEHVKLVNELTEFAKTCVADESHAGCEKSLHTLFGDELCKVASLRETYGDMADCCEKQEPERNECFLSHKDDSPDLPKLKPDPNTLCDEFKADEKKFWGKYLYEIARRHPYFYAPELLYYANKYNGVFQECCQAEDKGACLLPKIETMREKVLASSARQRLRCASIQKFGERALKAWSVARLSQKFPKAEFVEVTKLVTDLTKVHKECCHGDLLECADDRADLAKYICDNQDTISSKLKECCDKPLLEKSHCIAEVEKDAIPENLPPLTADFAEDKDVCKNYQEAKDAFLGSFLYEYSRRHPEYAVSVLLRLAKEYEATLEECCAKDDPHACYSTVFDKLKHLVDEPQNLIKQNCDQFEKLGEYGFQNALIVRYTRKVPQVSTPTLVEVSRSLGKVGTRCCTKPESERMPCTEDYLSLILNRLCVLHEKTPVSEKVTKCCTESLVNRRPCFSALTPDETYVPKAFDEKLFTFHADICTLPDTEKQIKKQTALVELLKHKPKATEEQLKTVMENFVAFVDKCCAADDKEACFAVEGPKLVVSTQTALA

B1: DarpMbp3-16(wt) (designed binder)
chain: MRGSHHHHHHGSDLGKKLLEAAHAGQDDEVRILMANGADVNAMDNFGVTPLHLAAYWGHFEIVEVLLKYGADVNASDATGDTPLHLAAKWGYLGIVEVLLKYGADVNAQDKFGKTAFDISIDNGNEDLAEILQKLN
Work on B1 yielded a ΔΔG [1] of 0 kcal/mol.

B2: DarpOff7(wt) (designed binder)
chain: MRGSHHHHHHGSDLGRKLLEAARAGQDDEVRILMANGADVNAADNTGTTPLHLAAYSGHLEIVEVLLKHGADVDASDVFGYTPLHLAAYWGHLEIVEVLLKNGADVNAMDSDGMTPLHLAAKWGYLEIVEVLLKHGADVNAQDKFGKTAFDISIDNGNEDLAEILQKLN
For B2, the Kd [2] was 11 nM, the Kd [3] was 5.6 nM and the koff [4] was 0.0051 s⁻¹ and 0.0062 s⁻¹ and 0.0061 s⁻¹. The kon [4] was 660000 M⁻¹ s⁻¹ and 250000 M⁻¹ s⁻¹ and 550000 M⁻¹ s⁻¹.

B3: DarpOff7(N45ANBD) (designed binder)
chain: MRGSHHHHHHGSDLGRKLLEAARAGQDDEVRILMANGADVNAADCTGTTPLHLAAYSGHLEIVEVLLKHGADVDASDVFGYTPLHLAAYWGHLEIVEVLLKNGADVNAMDSDGMTPLHLAAKWGYLEIVEVLLKHGADVNAQDKFGKTAFDISIDNGNEDLAEILQKLN
notes: also called conjugate at position Asn45; Asn45
B3: no binding (tested: 2.4 µM) (bovine serum albumin).
